Test results taken from article PMC5387054, “Zinc-Dependent Transcriptional Regulation in Paracoccus denitrificans”.

Tests used:
[1] = biological target: T1, Zur (Paracoccus denitrificans) (UniProt A1B9K9); test: EMSA; conditions: EMSA: 10 mM Tris pH 8.0, 10 mM NaCl, 100 mM K-glutamate, 50 mM KCl, 1 mM DTT, 1.07 ug/ml BSA, 0.1 uM DNA, 0-20 uM Zur, 25 uM ZnCl2, 100 uM EDTA; 30 min room …
T1 sequence: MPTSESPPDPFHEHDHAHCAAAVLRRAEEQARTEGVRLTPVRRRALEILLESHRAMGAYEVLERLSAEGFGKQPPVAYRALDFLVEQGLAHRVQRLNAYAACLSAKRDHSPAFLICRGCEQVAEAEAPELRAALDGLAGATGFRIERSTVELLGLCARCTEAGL

[2] = biological target: Paracoccus denitrificans zinc uptake regulator (Zur) (Paracoccus denitrificans PD1222); test: SEC; Factor Xa cleavage reaction mixture applied to a Hi-Prep Sephacryl S-100 HR column, 20 mM Tris pH 8.0, 150 mM NaCl, calibrated with proteins of 6.5 to 75 kDa
[3] = biological target: T2, Zur (Paracoccus denitrificans, UniProt A1B9K9 1-164); test: competition; probe zur/znuA 0.1 uM; 10 uM Zur, 25 uM Zn2+, 100 uM EDTA; 5 uM competitor; shift disrupted, not fully displaced; EMSA: 10 mM Tris pH 8.0, 10 mM NaCl, 100 mM K-glutamate, 50 mM KCl, 1 mM DTT, 1.07 ug/ml BSA, 0.1 uM DNA, 0-20 uM Zur, 25 uM ZnCl2, 100 uM EDTA; 30 min room temperature; 8% native PAGE at 4 C; conditions: protein: recombinant; tags: MBP (pMAL-c5X) removed by Factor Xa; chain copies: 2; blunt
T2 sequence: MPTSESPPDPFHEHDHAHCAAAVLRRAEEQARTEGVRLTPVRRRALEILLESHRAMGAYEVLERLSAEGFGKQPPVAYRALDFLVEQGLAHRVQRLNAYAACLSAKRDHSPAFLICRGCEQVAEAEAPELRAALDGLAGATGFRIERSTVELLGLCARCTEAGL

“GCCGCCCGCTGACCAGATTTCCGCCGGGACCAGCCTGCGCCCGTCCCGGCGCCCTCCCCCGAACCCCATCAAGGAGACTTTCCATGCTCAGACATCTCGCGGGCGCCAGCGCCCTTGCCCTGACCTT (double strand) [aztD promoter (negative control, 128 bp)]” was tested, and the binding [1] was “binds more weakly”.

With “AATCACAAAACCGGCGCCTCGGCATTTCCCCGCTGATGCTTTGCCCTCTCGCCGCGGGTCCTGCGGCTTTTCGGACGACCGGCGCGGCATGGCTTGCCGTTCCGGTTTAGTAATGTAATAACATCACCAAAATATCGAGTCCGCTATCCAGTGATGCCCAGAACC (double strand) [aztA promoter]” the binding [1] was “binds”.

“Paracoccus denitrificans zinc uptake regulator (Zur) (natural protein)” was tested, and the stoichiometry N [2] was 2.

With “CGGCAAGGACAAGGGAAGAAGGTCGGATCATGGCGAGACTCACTTGCGGAAACGCCAAGGTTATTTATGTTATATCGTAACCCGTCAAGCAAAAATGTAACGATATAACATCATGCCCACTTCGGAATCCCCGCCTGACCCGTTTCACG (double strand) [zur/znuA promoter (149 bp)]” the binding [1] was “binds”.

With “AAGAGAGGGTTGAGCCTGCCCGGTAAAGGGCCGGGCGGGATGATCCGCCAGGCGCATGGGCGAAGCCCTCTTGCATCCCCGGGTGGGTAATATAATAACATAACAAAATCTCCGAGGATAACGCTCATGCTCTGCAAACTGCTCGCTT (double strand) [pden1341 promoter]” the binding [1] was “binds”.

B1: specific competitor (zur/znuA), 59 bp (dsDNA)
DNA 1: GGGCATGATGTTATATCGTTACATTTTTGCTTGACGGGTTACGATATAACATAAATAAC
DNA 2: GTTATTTATGTTATATCGTAACCCGTCAAGCAAAAATGTAACGATATAACATCATGCCC
B1: binds [3].
